Experiment: yeast display, Sf9 membrane polyspecificity reagent, FACS + sequencing; frameworks hold sequencing errors
Outline: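 Genes from sorted yeast were amplified by colony PCR, read by MiSeq 2 × 250 sequencing and filtered on CDR length. These cells carried a synthetic nanobody library in Saccharomyces cerevisiae BJ5465 and were sorted by FACS into low and high (top ~1%) gates on anti-HA and streptavidin fluorescence. Polyreactivity is labelled according to the gate of origin.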

QVQLVESGGGLVQAGGSLRLSCAASGRTIQTYTMGWYRQAPGKERELDAVITTRGGRTYYADSVKGRFTISRDNAKNTVYLQMNSLKPEDTAVYYCNKGIPTRSVRSYDYWGQGTQVTVSS
polyreactivity (PSR sort gate): high polyreactivity

QVQLVESGGGLVQAGGSLRLSCAASGSTFRFNAMGWYRQAPGKERELVAAISGSGGSTYYADSVKGRFTISRDNAKNTVYLQMNSLKPEDTAVYYCAASASSRSYFKSYYWGQGTQVTVSS
polyreactivity (PSR sort gate): high polyreactivity

QVQLVESGGGLVQAGGSLRLSCAASGRTFNVYAMGWYRQAPGKERELVAGISSSGGSTYYADSVKGRFTISRDNAKNTVYLQMNSLKPEDTAVYYCNTVYKYHGVRPYGYWGQGTQVTVSS
polyreactivity (PSR sort gate): high polyreactivity

QVQLVESGGGLVQAGGSLRLSCAASGLIFNRYTMGWYRQAPGKERELVAAINRSGGNTYYADSVKGRFTISRDNAKNTVYLQMNSLKPEDTAVYYCNADYFSRTGYKYDYWGQGTQVTVSS
polyreactivity (PSR sort gate): high polyreactivity

QVQLVESGGGLVQAGGSLRLSCAASGRTLYVYAMGWYRQAPGKEREFVAAINSSGDSTYYADSVKGRFTISRDNAKNTVYLQMNSLKPEDTAVYYCAAAGYYGYGYDYWGQGTQVTVSS
polyreactivity (PSR sort gate): low polyreactivity

QVQLVESGGGLVQAGGSLRLSCAASGSTFSYYVMGWYRPAPGKERELVAAISGSGGSTYYADSVKGRFTISRDNAKNTVYLQMNSLKPEDTAVYYCDANDGSEYDYWGQGTQVTVSS
polyreactivity (PSR sort gate): high polyreactivity

QVQLVESGGGLVQAGGSLRLSCAASGRTFDYYAMGWYRQAPGKERELVAAISSTGTSTYYGDSVKGRFTISRDNAKNTVYLQMNRLKPVDTAVYYCSAVSWYEYDYWGQGTQVSVSS
polyreactivity (PSR sort gate): high polyreactivity

QVQLVESGGGIVQAGGSLRLSCAASGTFGYAMGWYRQAPGKERELVAAISYSGGSTYYADSVKGRFTISRDNAKNTVYLQMNSLKPEDTAVYYCAARTTLSYGYDYWGQGTQVTVSS
polyreactivity (PSR sort gate): high polyreactivity

QVQLVESGGGLVHAGGSLRLSCAASGFTFGSNAMGWYRQAPGKERELVAAISSRGGRTYYADSVKGRFTISRDNAKNTVYLQMNRLKPDDTAVYYCNADATVAWREQEYEYWGQGTQVSVSS
polyreactivity (PSR sort gate): high polyreactivity

QVQLVESGGGLVQAGGSLRLSCVASGSIFGSYAMGWYRQAPGKERELVASISDSGGSTDYADSVKGRFTISRDNAKNTVYLQMHSLKPEDTAVYYCAADDFSGYVTEYDYWGQGTQVTVSS
polyreactivity (PSR sort gate): low polyreactivity

QVQLVESGGGLVQAGGSLRLSCAASGSIFVYYAMGWYRQAPGKERELVAAISSGGRTYYADSVKGRFTISRDNAKNTVSLQMNSLKPEDTAVYYCNAVHYFQYGYYSWGQGTQVTVSS
polyreactivity (PSR sort gate): high polyreactivity

QVQLVESGGGLVQAGGSLRLSCAASGRTFNAMGWSRQAPGKERELVASISRRGGSTSYADSVKGRFTISRDNAKNTVYLQMYSLKPEDTAVYYCAARVGWVRYGYWGQGTQVTVSS
polyreactivity (PSR sort gate): low polyreactivity

QVQLVESGGGLVQAGGSLRLSCAASGRTIVWYAMGWYRQAPGKERELVAAISKRGGSTYYADSVKGRFTISRDNAKNTVYLQMNSLKPEDTAVYYCAAEVYYGSSYGYWGQGTQVTVSS
polyreactivity (PSR sort gate): high polyreactivity

QVQLVESGGGLVQAGGSLRLSCAASGRIFGTYAMGWYRQAPGKERELVDAISSSGTSTYYADSVKGRFTISRDNAKTTVYLQMNSLPPEDTAVYYCAVEAIDYAYAYYFRLGYDYWGQGTQVTVSS
polyreactivity (PSR sort gate): low polyreactivity

QVQLVESGGGLVQAGGSLRLSCAASGSTFDVNAMGWYRPAPGKERELVAAISFSGGSTYYADSVKGRFTISRDNAKNTVYLQMNSLKPEDTAVYYCAAEEWRSYYEEYDYWGQGTQVTVSS
polyreactivity (PSR sort gate): low polyreactivity

QVQLVESGGGLVQAGGSLRLICAASGFTLADNGMGWYRQAPGKERELVATISGGGSTNYADSVKGRFTISRDNAKNTVYLQMISLKPEDTAVYYCAKEGRYSWYTLSEYDYWGQGTQVTVSS
polyreactivity (PSR sort gate): low polyreactivity

QVQLVESRGGLVQAGGSLRLSCAASGITFGRNTMGWYRQAPGKERELVAAIDSGGNTYAESVKGRFTISRDNAKKTVYFQMNSLKPEDTAVYYCAVDGGEFSSYGYWGQGSQVTVSS
polyreactivity (PSR sort gate): low polyreactivity

QVQLVESGGGLVQAGGSLRLSCAASGSTFGSYAMGWYRQAPGKVRELVASIRSSGTSTYYADSVKGRFTISRDNAKNTVYLQMNSLKPEDTAVYYCAKRYFTWRSTYNYWGQGTQVTVSS
polyreactivity (PSR sort gate): high polyreactivity

QVQLVESGGGLVQAGGSLRLSCAASGITFRWNAMGWYRPAPGKERELVAAITTRGGGTYYADSVKGRFTISRDNAKNTVYLQMNSMKPEDTAVYYCAAKKSRYPYNYWGQGTQVTVSS
polyreactivity (PSR sort gate): high polyreactivity

QVQLVESGGGLVQAGGSLRLSCAASGFIFGWNAMGWYRQAPGKVREFVAAITSSGTSTYYADSVKGRFTISRDNAKNTVYLQMNSLKPEDTAVYYCAADVIFTWLAYSTEYDYWGQGTQVTVSS
polyreactivity (PSR sort gate): low polyreactivity

QVQLVESGGGLVQAGGSLRLSCAASGSTFIDYAMGWYRQAPGKERELVAGGSTNYADSVKGRFTISRDNAKNTVYLQMNSLKPEYTAVYYCNADALLYPYWGFDYWGQGTQVTVSS
polyreactivity (PSR sort gate): low polyreactivity

QVQLVESGGGLVQAGGSLRLSCAASGITFPGYAMGWYRQAPGKERELVAAIDWSGDGTYYADSVKGRFTISRDNAKNTVYLQMNSLKPEDTAVYYCAKDNYPNHSTVLAVIYDYWGQGTQVTVSS
polyreactivity (PSR sort gate): low polyreactivity

QVQLVESGGGLLHAGGSLRLSCAASGRIFWFYTMGWYRQAPGKERELVAAISDSAGSTYYADSVKGRFTISRDNAKYTVYVPMNSLKPEDTAVYYCDADGWWQYDYWGHGTQVTVSS
polyreactivity (PSR sort gate): low polyreactivity

QVQLVESGGGLVQAGGSLRLSCAASGFIFSKYAMGWYRQAPGKERELVAAITGGGSTNYADSVKGRFTISRDNAKNTVYLQMTSLKPEDTAVYYCAARGFTLTDYDRDLYYWGQGTQVTVSS
polyreactivity (PSR sort gate): low polyreactivity

QVQLVESGGGLVQAGGSLRISCAASGLTLTSNDMGWYRQAPGKEREFVASITWSGGSTSYADSVKGRFTISRDNAKNTVYLQMNSLKPEDTAVYYCAARPRYFSKSWRGYYYWGQGTQVNVSS
polyreactivity (PSR sort gate): high polyreactivity

QVQLVESGGGLVQAGGSLRLSCAASGSTFVPNAMGWYRQAPGKEREFVAAIRVSGDNTYYADSVKGRFTISRDNAKNTVYLQMNSLKPEDTAVYYCAATGTVLGSVDYWGQGTQVTVSS
polyreactivity (PSR sort gate): low polyreactivity

QVQLVESGGGLVQAGGSLRLSCAASGRTFVRYAMGWYRQAPGKERELVAAISLRGGRTYYADSVKGRFTISRDYANNTVYLQMNSRNPEDTAVYYCAARSYPTGASFDYWGQGTQVTVSS
polyreactivity (PSR sort gate): high polyreactivity

QVQLVESGGGLVQAGGSLRLSCAASGGIFTDYTMGWYRQAPGKERELVAAITWTGGSTYYADSVKGRFTISRDNAKNSVYLQMNSLKPEDTAVYYCAADEYWVNLDYWGQGTQVTVSS
polyreactivity (PSR sort gate): low polyreactivity

QVQLVESGGGLVQAGGSLRLSCAASGSIFASYAMGWYRQAPGKERELVAAITTSGGRTYYADSVKGRFTISRDNAKNTVYLQMNSLKPEDTAVYYCARRPRGGRYAYYSWGQGTQVTVSS
polyreactivity (PSR sort gate): high polyreactivity

QVQLVESGGGLVQAGGSLRLSCAASGSIFAWYALGWYRQAPGKERELVADITQSGGSTYYADSVKGRFTISRDNAKNTVYLQMNSLKPEDTAVYYCVDYWYNYLQSGWEDDYWGQGTQVTVSS
polyreactivity (PSR sort gate): low polyreactivity

QVQLVESGGGLVQAGGSLRLSCAASGSIRYYYVMGWYRQAPGKERELVAAITSGGSTYYADSVKGRFTISRDNAKNTVYLQMNSLKPEDTAVYYCNARTRSLTGSRFNYWGQVTQVTVSS
polyreactivity (PSR sort gate): high polyreactivity

QDHLVESGGGLVQAGGSLRLSCAASGSIFGLNVMGWYRHAPGKERELVASITSGRSTNYADSVKVRFTISRDNAKNTVYLQMNSLKPVVTAVYYCYATRVRGWYVTRYYYWGQGTQVTVSA
polyreactivity (PSR sort gate): high polyreactivity

QVQLQESGGGLVQAGGDLRLSCEASGNIFRDYIMGWYRQAPGKEREFVAGIDRGANTNYADSVKGRFTISRDNAKNTVYLQMNSLQPEDTAVYYCAVHTAIVPDFIYWGQGTQVTVRS
polyreactivity (PSR sort gate): low polyreactivity

QVQLVESGGGLVQAGGSLRLSCAASGRIFDYNAMGWYRQAPGKERELVAAISSRGGRTYYADSVKGRFTISRDNAKNTVYLQMNSLKPEDTAVYYCNTGWATDADDYWGQGTQVTVSS
polyreactivity (PSR sort gate): high polyreactivity

QVQLVESGGGLVQAGGSLRLSCAASGLTFKVYDMGWYRKAPGKERELVAAIWSDGDTYYADSVKGRFTISRDNAKNTVYLQMNSLKPEDTGVYYCAAVPGCTVHFVYGNKYDYWGQGTQVTVSS
polyreactivity (PSR sort gate): low polyreactivity

QVQLVESWGGLVQAGGSLRLSCAASGSIFDNYAMGWYRQAPGKERELVAAISWSGGRTYYADSVKGRFTISRDNAKNTVYLQMNSLKPEDTAVYYCAAYVYTSFLYYYWGQGTQVTVSS
polyreactivity (PSR sort gate): high polyreactivity

QVQLVESGGGLVQAGGSLRLSCAASGLTFNKYAMGWYRQGPGKERELVAAISYRGGSTYYADSVKGRFTISRDNAKNTVYLQMNSLKPEDTAVYYCAVRYWALDDQYRYGSWGQGTQVTVSS
polyreactivity (PSR sort gate): high polyreactivity

QVHLVESGGGLVQAGGSLRLSCAASGRIFGKYAMGWYRQAPGKERELVAAISSSGRTNSADSVKGRFTISRDNAKNTVYLQMNSLKPADTAVYYCAVRVLIHTNTRRLDYWGQGTQVTVSS
polyreactivity (PSR sort gate): high polyreactivity

QVQLVESGGGLVQAGGSLRLSSAASGLTFTYYVMGWYRQAPGKERELVAAITVSGGSTYYADSVKGRFTISRDNAKNTVYLQMNSLKPEDTAVYYCAADAYSGYSDYYWGQGTQVTVSS
polyreactivity (PSR sort gate): low polyreactivity

QVQLVESGGGLVQAGGRLRLSSAASGFIFAYNAMGWYRQGPGKERELVASIRTRGGSTYYADSVKGRFTISRDNAKNTVYLQMNSLKPEDTSVYYCAARPFPRRYDYWGQGSQVTVSS
polyreactivity (PSR sort gate): low polyreactivity

QVQLVESGGGLVQAGCSLRLSCAASGRTFARYVMGWYRQAPGKEREFVATISTSGTSTYYADSVKGRFTISRDNAKNTVYLQMNSLKPAETAVYYCAARRTTRGYDYWGQGTQVTVSS
polyreactivity (PSR sort gate): high polyreactivity

QVQLVESGGGLVQAGGSLRLSCAASGRTLYRYAMGWYRQAPGKERELVAAISSGGRTYYADSVKGRFTISRDNAKNTVYLQMNSLKPEDTAVYYCAAERGWWRNDFDYWGQGTQVTVSS
polyreactivity (PSR sort gate): high polyreactivity

QVQLVESGGGLVQAGCSLRLSCAASGRTFPPYAMGWYRQAPRKERELVAAISRRAGTTYYADSVKGRFTISRDNAKNTVYLQMNSLKPEDTAVYYCAALSESSSYGYWGQGTQVTVSS
polyreactivity (PSR sort gate): low polyreactivity
